Measured values: PMC3860269

Target: in vitro assembled HIV-1 CA–NC complexes bearing the capsid change N74D (HIV-1)
Assay: co-sedimentation

Question: With “GFP-Nup98 (from UniProt P52948 1-880) (natural protein)” as the substance, how does the fold decrease of binding against wild type CA–NC complexes read?
Answer: 2 fold
